Results reported in paper PMC6818130.

Legend:
[1] = glycan lost
[2] = confocal immunofluorescence co-localisation with LAMP1; details: glycan lost; control: wild-type GILT
[3] = Western blot, steady-state level, Tet-induced 293 cells; details: glycan lost; control: wild-type GILT

Gamma-interferon-inducible lysosomal thiol reductase (GILT, IFI30): N95A
decreases: other: restriction of viral entry [1] | localisation_or_trafficking [2] | expression_or_secretion [3]

Gamma-interferon-inducible lysosomal thiol reductase (GILT, IFI30): N108A
decreases: other: restriction of viral entry [1] | localisation_or_trafficking [2] | expression_or_secretion [3]

Gamma-interferon-inducible lysosomal thiol reductase (GILT, IFI30): N63A
decreases: other: restriction of viral entry [1] | localisation_or_trafficking [2] | expression_or_secretion [3]
